Results published in US20060233798A1.

Legend:
[1] = target: HIV-1JR-FL envelope glycoproteins gp120/gp41 on HeLa-EnvJR-FL+ cells (HIV-1 JR-FL); assay: cell-based or functional assay
[2] = target: CCR5 chemokine receptor on the cell surface (UniProt P51681)
[3] = target: CCR5 chemokine receptor on the cell surface (UniProt P51681); assay: cell-based or functional assay
[4] = target: CCR5 chemokine receptor on the cell surface (UniProt P51681); assay: flow cytometry on mitogen-stimulated PBMC
[5] = target: CCR5 chemokine receptor on the cell surface (UniProt P51681); assay: flow cytometry on L1.2-CCR5+ cells, PE anti-mouse IgG

Chain of UniProt P51681 (P51681 whole entry): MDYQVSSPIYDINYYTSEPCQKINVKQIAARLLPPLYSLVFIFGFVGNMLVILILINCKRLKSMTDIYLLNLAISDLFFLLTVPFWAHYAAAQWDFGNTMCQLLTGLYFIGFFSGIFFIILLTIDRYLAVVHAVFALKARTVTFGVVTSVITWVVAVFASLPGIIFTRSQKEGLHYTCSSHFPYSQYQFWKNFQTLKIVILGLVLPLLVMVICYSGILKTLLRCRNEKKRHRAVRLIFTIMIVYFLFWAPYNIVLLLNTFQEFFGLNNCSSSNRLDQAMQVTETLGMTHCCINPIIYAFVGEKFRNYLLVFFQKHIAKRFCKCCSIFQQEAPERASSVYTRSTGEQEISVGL

Substance	K (equal to the IC50) of the median effect fit, inhibition of env-mediated membrane fusion (RET assay, HeLa-EnvJR-FL+ and PM1 cells) [1]	IC50 [2]	IC50, inhibition of JR-FL entry (luciferase reporter virus, U87MG-CD4+CCR5+ cells) [3]	IC50, inhibition of cell-cell fusion (RET assay, PM1 and HeLa-EnvJR-FL+ cells) [3]	K (equal to the IC50) of the median effect fit, inhibition of cell-cell fusion (RET assay) [3]	% of PBMC stained [4]	% of L1.2-CCR5+ cells stained [5]	% inhibition of entry attained [3]	% inhibition of fusion attained [3]	IC50 for calcium influx inhibition (RANTES-induced, L1.2-CCR5+ cells) [3]	IC50 for calcium influx inhibition, ratio to the IC50 for 2D7 [3]	fold difference of m.f.i. against PA9 [4]
CD4-IgG2 (from UniProt P01730 26-204; P01730 26-203) (Fc fusion)	0.31 µg/mL	–	–	–	–	–	–	–	–	–	–	–
T-20 peptide	0.017 µg/mL	–	–	–	–	–	–	–	–	–	–	–
anti-CCR5 mAb 2D7 (antibody)	–	1.38 µg/mL	0.026 µg/mL	1.6 µg/mL	0.36 µg/mL	> 20%	> 90%	–	–	–	–	–
anti-CCR5 monoclonal antibody PA14	–	1.58 µg/mL	0.024 µg/mL	1.7 µg/mL	–	> 20%	> 90%	> 90%	> 90%	50 µg/mL	8 fold	7 fold
